Where two headings read alike, the source gives them in different places.
What was measured:
Assay in all cases: fluorescence anisotropy
[1] = molecular target: T1, CREB bZip (Rattus norvegicus, UniProt P15337-1 270-341, C300S;C310S;C337S)
T1 sequence: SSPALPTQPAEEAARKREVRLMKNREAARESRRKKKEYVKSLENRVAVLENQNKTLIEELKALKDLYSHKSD

[2] = molecular target: T1, CREB bZip; remark: listed apart in the source
[3] = molecular target: htCREBD,4 (unphosphorylated) (UniProt P15337-1 1-341, C90A;V118D;C300S;C310S;C337S;del162-272)

B1: half-site CRE 14-mer (dsDNA)
DNA 1: ATCTGCGTCAGAGT
DNA 2: ACTCTGACGCAGAT
Kd [1]: ~38 nM
Kd [2]: ~32 nM
binding result [3]: binds

From article PMC6474821
